This is an account of results in the Human Domainome abundance scans (Beltran et al. 2025).

± gives the uncertainty stated by the source.

Sequences and labels used below:
B1: Nucleolar transcription factor 1, residues 408 to 469; numbered along this chain, P17480 (parent)
chain: KRPVSAMFIFSEEKRRQLQEERPELSESELTRLLARMWNDLSEKKKAKYKAREAALKAQSER

Variants of B1 are the subject of this data set. Description: abundance fitness (aPCA) (normalised: wild type 0, dead -1); higher = more abundant; growth selection in yeast, the domain comes from the species named. The settings on record: Homo sapiens.
As for F8I, the abundance fitness was -0.02 ± 0.1.
Then F8S, with -0.039 ± 0.053; and F8R, with 0.005 ± 0.045.
Then F8K, with -0.004 ± 0.07; and R36L, with -0.093 ± 0.046; and R36W, with -0.182 ± 0.058.
Then R36Q, with -0.096 ± 0.087.
On to R36K, for which the abundance fitness was -0.072 ± 0.08.
Then E12L, with -0.182 ± 0.049.
On to E12G, for which the abundance fitness was -0.175 ± 0.056.
The value for E12D was -0.092 ± 0.098; that for S26Q was -0.104 ± 0.085.
Regarding K14H, the abundance fitness is 0.062 ± 0.088.
The value for I9T was -0.217 ± 0.074.
The value for S42L was -0.661 ± 0.052; that for S42R was -0.698 ± 0.062; that for S42E was -0.121 ± 0.075.
Then S42K, with -0.294 ± 0.061.
Turning to R15E, the abundance fitness is -0.279 ± 0.063.
The value for R15Q was -0.267 ± 0.13; that for R15W was -0.295 ± 0.096.
For E13N, the abundance fitness is -0.344 ± 0.14.
E13K: the abundance fitness was -0.106 ± 0.073.
The value for E13G was -0.22 ± 0.043.
The value for K46P was -0.772 ± 0.1.
With K44D, the abundance fitness was determined as 0.059 ± 0.087.
Turning to K44T, the abundance fitness is -0.023 ± 0.059.
Then Q19T, with -0.128 ± 0.065; and Q19W, with -0.159 ± 0.043.
Regarding Q19L, the abundance fitness was -0.017 ± 0.041.
As to Q19H, the abundance fitness is -0.099 ± 0.084.
Take Q19M: the abundance fitness was 0.012 ± 0.055.
On to E61A, for which the abundance fitness was -0.059 ± 0.064.
With E61Y, the abundance fitness is -0.191 ± 0.2.
Consider E61M, for which the abundance fitness came to 0.023 ± 0.11.
The value for M37E was -0.094 ± 0.056.
The value for M37Y was -0.12 ± 0.055; that for M37D was -0.422 ± 0.14.
Then M37L, with -0.062 ± 0.041.
Turning to M37H, the abundance fitness is -0.267 ± 0.12.
The value for K50Y was -0.074 ± 0.22.
Consider K50W, for which the abundance fitness was -0.134 ± 0.059.
The value for L34W was -1.01 ± 0.062; that for L34D was -1.19 ± 0.45.
The value for L34E was -0.287 ± 0.081; that for L34P was -0.945 ± 0.17; that for L34F was -0.296 ± 0.12.
As for L18G, the abundance fitness was -1 ± 0.055.
Then L18C, with -0.127 ± 0.055; and L18M, with -0.108 ± 0.058.
Then R16V, with -0.044 ± 0.053; and R16K, with -0.073 ± 0.12.
Then R16Q, with -0.041 ± 0.066; and Y49K, with -0.861 ± 0.1.
Turning to Y49S, the abundance fitness is -0.718 ± 0.058.
With A35S, the abundance fitness is -0.063 ± 0.063.
The value for K57H was -0.044 ± 0.098.
Then K57Y, with -0.162 ± 0.12; and P23N, with -0.319 ± 0.12; and P23F, with -0.402 ± 0.09.
L56D: the abundance fitness is -0.078 ± 0.074.
Take L56R: the abundance fitness was -0.111 ± 0.05.
The value for L56H was -0.05 ± 0.11.
Turning to L56N, the abundance fitness was -0.157 ± 0.13.
E27D: the abundance fitness amounted to 0.037 ± 0.1.
On to E27Q, for which the abundance fitness is -0.121 ± 0.12.
The value for E53A was -0.056 ± 0.072; that for E53K was -0.366 ± 0.083; that for E53G was -0.142 ± 0.081.
For the variant S5Y, the abundance fitness is -0.146 ± 0.15.
Then S5C, with -0.148 ± 0.15.
Consider L33H, for which the abundance fitness was -0.02 ± 0.13.
The value for L33E was 0.006 ± 0.089.
The value for E29N was -0.174 ± 0.11; that for N39K was -0.087 ± 0.097.
Then N39M, with -0.071 ± 0.071; and S60V, with -0.038 ± 0.059.
In the case of R62S, the abundance fitness was -0.019 ± 0.066.
Take R22C: the abundance fitness is -0.081 ± 0.063.
Turning to R22Y, the abundance fitness is -0.068 ± 0.07.
Then R22V, with -0.29 ± 0.053; and R22F, with -0.057 ± 0.068.
Then A51G, with -0.101 ± 0.047; and A51E, with -0.033 ± 0.082; and A51C, with -0.166 ± 0.094.
Then A51H, with -0.142 ± 0.12.
Consider A51L, for which the abundance fitness was -0.042 ± 0.051.
As for R2Q, the abundance fitness is -0.317 ± 0.1.
Regarding R2Y, the abundance fitness was 0.01 ± 0.16.
Then R2D, with -0.109 ± 0.15; and T31H, with -0.074 ± 0.091; and K45S, with -0.023 ± 0.04.
The value for K45H was -0.099 ± 0.11.
Regarding K45T, the abundance fitness was -0.067 ± 0.042.
On to K45Y, for which the abundance fitness is -0.181 ± 0.094.
Then K45A, with -0.048 ± 0.052.
For the variant K45Q, the abundance fitness amounted to 0.014 ± 0.058.
Then K45I, with -0.07 ± 0.063; and L41P, with -0.846 ± 0.093; and L41V, with -0.345 ± 0.042.
Then L41D, with -0.613 ± 0.079.
Take L41A: the abundance fitness was -0.165 ± 0.061.
On to D40N, for which the abundance fitness was -0.265 ± 0.087.
Then D40C, with -0.213 ± 0.077.
The value for D40M was -0.044 ± 0.08; that for D40F was -0.135 ± 0.13.
Take D40V: the abundance fitness was -0.188 ± 0.05.
Regarding S28E, the abundance fitness was -0.011 ± 0.14.
The value for S28A was -0.053 ± 0.058.
On to S28P, for which the abundance fitness was -0.047 ± 0.047.
Turning to S28M, the abundance fitness is -0.131 ± 0.067.
With E24V, the abundance fitness is -0.401 ± 0.057.
With E24N, the abundance fitness is -0.199 ± 0.16.
The value for E24F was -0.144 ± 0.085; that for F10D was -1.01 ± 0.38; that for S11G was -0.028 ± 0.043.
For S11E, the abundance fitness is -0.023 ± 0.067.
Take A54P: the abundance fitness was -0.267 ± 0.075.
As for A54T, the abundance fitness was -0.04 ± 0.054.
A54V: the abundance fitness was -0.003 ± 0.052.
The value for Q59F was -0.193 ± 0.1; that for Q59R was -0.027 ± 0.038; that for Q59H was -0.117 ± 0.14.
Consider Q59T, for which the abundance fitness was -0.029 ± 0.05.
Take M7L: the abundance fitness was -0.086 ± 0.055.
Consider M7S, for which the abundance fitness is -0.056 ± 0.049.
For the variant M7E, the abundance fitness was -0.045 ± 0.065.
Then M7T, with -0.22 ± 0.068.
With L25T, the abundance fitness was -0.423 ± 0.082.
The value for L25A was -0.106 ± 0.099; that for W38C was -0.98 ± 0.092; that for K1I was 0 ± 0.25.
The value for V4G was -0.094 ± 0.047.
Then V4K, with -0.053 ± 0.067; and V4I, with -0.018 ± 0.065.
For the variant A47C, the abundance fitness is -0.156 ± 0.13.
Then A47D, with -0.291 ± 0.17.
Regarding A47P, the abundance fitness is -0.695 ± 0.082.
With A47L, the abundance fitness is -0.064 ± 0.047.
As to A47F, the abundance fitness is -0.11 ± 0.26.
For A47E, the abundance fitness was -0.039 ± 0.086.
On to Q17G, for which the abundance fitness is -0.038 ± 0.041.
The value for Q17V was -0.018 ± 0.057.
The value for E43A was -0.001 ± 0.099; that for L30M was -0.043 ± 0.059.
On to L30T, for which the abundance fitness was -0.118 ± 0.097.
The value for L30W was -0.177 ± 0.042.
As to L30P, the abundance fitness was -1.1 ± 0.17.
As to R52E, the abundance fitness was -0.026 ± 0.073.
The value for R52L was -0.114 ± 0.045.
Take R52F: the abundance fitness is -0.209 ± 0.1.
For the variant R52G, the abundance fitness is -0.193 ± 0.048.
Then K48F, with -0.066 ± 0.067.
Then K48L, with -0.11 ± 0.051; and K48E, with 0.104 ± 0.24.
Turning to K48Y, the abundance fitness is -0.209 ± 0.18.
For A58P, the abundance fitness is -0.084 ± 0.061.
The value for A55D was -0.039 ± 0.12.
P3V: the abundance fitness was -0.02 ± 0.09.
Take P3A: the abundance fitness is -0.137 ± 0.068.
Then P3H, with -0.061 ± 0.088; and P3R, with -0.095 ± 0.033.
Then R32I, with -0.007 ± 0.13.
Then A6E, with -0.17 ± 0.067; and A6F, with -0.573 ± 0.093.
With A6S, the abundance fitness is -0.191 ± 0.076.
The value for A6L was -0.661 ± 0.06.
